Reference: article PMC9935876, “Structure of the planar cell polarity cadherins Fat4 and Dachsous1” (Nature Communications, 2023)
Several values for one entry are separate records, joined by “and”; a condition that tells them apart may be missing. Equal values may be shown once. Read-outs that look alike come from different tables or passages of the source.

Key:
[1] = target: Human Fat4R152A(EC1-4) (human) (UniProt Q6V0I7); test: ITC; MicroCal ITC200; Fat4 construct 30 µM in the sample cell, Dchs1 construct 300 µM as titrant; 20 °C; fitted with one set of sites; two independent experiments
Human Fat4(EC1-4) [2] = target: T1, Human Fat4(EC1-4) (human, UniProt Q6V0I7 43-475); test: ITC; MicroCal ITC200; Fat4 constructs 30 µM in the sample cell, Dchs1 constructs 300 µM as titrants; 20 °C; one set of sites; conditions: both partners purified
T1 construct: human Fat4, extracellular cadherin domains EC1-EC4, aa43-475; A 3C protease site stands between the protein and the C-terminal BAP-tag and His6; also called WT
T1 sequence: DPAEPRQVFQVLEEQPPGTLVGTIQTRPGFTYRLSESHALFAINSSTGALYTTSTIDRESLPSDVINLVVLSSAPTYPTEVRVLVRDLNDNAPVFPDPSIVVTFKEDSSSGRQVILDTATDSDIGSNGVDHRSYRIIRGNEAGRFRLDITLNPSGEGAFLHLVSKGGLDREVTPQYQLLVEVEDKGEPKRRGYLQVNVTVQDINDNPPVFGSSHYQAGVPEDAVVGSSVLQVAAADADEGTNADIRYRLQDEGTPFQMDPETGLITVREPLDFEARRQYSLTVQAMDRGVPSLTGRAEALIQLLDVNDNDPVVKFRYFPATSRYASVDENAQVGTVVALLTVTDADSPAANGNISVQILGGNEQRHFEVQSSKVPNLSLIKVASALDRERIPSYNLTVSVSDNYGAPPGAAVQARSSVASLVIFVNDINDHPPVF

human Fat4(EC1–4) = target: T2, human Fat4(EC1–4) (human, UniProt Q6V0I7 43-475); test: ITC; MicroCal ITC200; Fat4 constructs at 30 µM in the sample cell, Dchs1 constructs at 300 µM as titrants; 20 °C; one set of sites; conditions: both partners purified
T2 construct: human Fat4, EC1–EC4, aa43–475; Form used in ITC; also called wild type Fat4(EC1–4)
T2 sequence: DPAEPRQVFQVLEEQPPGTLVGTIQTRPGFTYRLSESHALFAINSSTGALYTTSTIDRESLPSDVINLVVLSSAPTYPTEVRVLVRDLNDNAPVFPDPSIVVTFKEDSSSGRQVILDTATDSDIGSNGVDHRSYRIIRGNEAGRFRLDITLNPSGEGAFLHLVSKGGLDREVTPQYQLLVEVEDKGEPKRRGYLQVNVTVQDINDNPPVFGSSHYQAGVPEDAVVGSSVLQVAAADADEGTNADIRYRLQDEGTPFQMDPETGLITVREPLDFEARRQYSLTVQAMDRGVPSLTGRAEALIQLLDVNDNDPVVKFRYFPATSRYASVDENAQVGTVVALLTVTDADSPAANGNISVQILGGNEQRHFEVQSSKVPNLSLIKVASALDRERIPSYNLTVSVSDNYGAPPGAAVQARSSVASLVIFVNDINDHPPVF

Human Fat4(EC1-4) [3] = target: T3, Human Fat4(EC1-4) (human, UniProt Q6V0I7 43-475); test: ITC; MicroCal ITC200; Fat4 construct 30 µM in the sample cell, Dchs1 construct 300 µM as titrant; 20 °C; fitted with one set of sites; two independent experiments; conditions: both partners purified
T3 construct: Fat4, human, EC1-EC4, aa43-475; Tags were cleaved only for the constructs meant for co-crystallisation; nothing is said for ITC; also called Fat4 EC1–EC4
T3 sequence: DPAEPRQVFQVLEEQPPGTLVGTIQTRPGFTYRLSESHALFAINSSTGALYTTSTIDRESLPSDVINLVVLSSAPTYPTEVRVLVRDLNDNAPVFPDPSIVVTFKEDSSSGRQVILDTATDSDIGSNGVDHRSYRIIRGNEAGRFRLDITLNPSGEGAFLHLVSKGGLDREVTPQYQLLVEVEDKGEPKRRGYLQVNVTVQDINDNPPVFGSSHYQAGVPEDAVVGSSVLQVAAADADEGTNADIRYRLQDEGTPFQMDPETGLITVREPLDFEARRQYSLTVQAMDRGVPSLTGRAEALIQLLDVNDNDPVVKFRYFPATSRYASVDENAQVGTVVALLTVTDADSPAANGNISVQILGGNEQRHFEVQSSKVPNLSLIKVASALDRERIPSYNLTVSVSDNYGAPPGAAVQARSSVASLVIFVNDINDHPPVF

B1: Human Dchs1(EC1-4) (domain or fragment)
chain: DPQAGSLDLQIDEEQPAGTLIGDISAGLPAGTAAPLMYFISAQEGSGVGTDLAIDEHSGVVRTARVLDREQRDRYRFTAVTPDGATVEVTVRVADINDHAPAFPQARAALQVPEHTAFGTRYPLEPARDADAGRLGTQGYALSGDGAGETFRLETRPGPDGTPVPELVVTGELDRENRSHYMLQLEAYDGGSPPRRAQALLDVTLLDINDHAPAFNQSRYHAVVSESLAPGSPVLQVFASDADAGVNGAVTYEINRRQSEGDGPFSIDAHTGLLQLERPLDFEQRRVHELVVQARDGGAHPELGSAFVTVHVRDANDNQPSMTVIFLSADGSPQVSEAAPPGQLVARISVSDPDDGDFAHVNVSLEGGEGHFALSTQDSVIYLVCVARRLDREERDAYNLRVTATDSGSPPLRAEAAFVLHVTDVNDNAPAF
- Kd [1]: 3390 nM and 5180 nM
- Kd ([1]; mean): 4280 nM

B2: Human Dchs1(EC1-4) F79A (domain or fragment)
chain: DPQAGSLDLQIDEEQPAGTLIGDISAGLPAGTAAPLMYAISAQEGSGVGTDLAIDEHSGVVRTARVLDREQRDRYRFTAVTPDGATVEVTVRVADINDHAPAFPQARAALQVPEHTAFGTRYPLEPARDADAGRLGTQGYALSGDGAGETFRLETRPGPDGTPVPELVVTGELDRENRSHYMLQLEAYDGGSPPRRAQALLDVTLLDINDHAPAFNQSRYHAVVSESLAPGSPVLQVFASDADAGVNGAVTYEINRRQSEGDGPFSIDAHTGLLQLERPLDFEQRRVHELVVQARDGGAHPELGSAFVTVHVRDANDNQPSMTVIFLSADGSPQVSEAAPPGQLVARISVSDPDDGDFAHVNVSLEGGEGHFALSTQDSVIYLVCVARRLDREERDAYNLRVTATDSGSPPLRAEAAFVLHVTDVNDNAPAF
notes: human Dachsous1 (Dchs1), EC1-EC4, aa43-472, with F79A in EC1; also called Dchs1F79A(EC1-4); Dchs1F79A
- stoichiometry N (Human Fat4(EC1-4) [2]): 0.924 ± 0.00978 sites

B3: Human Dchs1(EC1-4) R297A (domain or fragment)
chain: DPQAGSLDLQIDEEQPAGTLIGDISAGLPAGTAAPLMYFISAQEGSGVGTDLAIDEHSGVVRTARVLDREQRDRYRFTAVTPDGATVEVTVRVADINDHAPAFPQARAALQVPEHTAFGTRYPLEPARDADAGRLGTQGYALSGDGAGETFRLETRPGPDGTPVPELVVTGELDRENRSHYMLQLEAYDGGSPPRRAQALLDVTLLDINDHAPAFNQSRYHAVVSESLAPGSPVLQVFASDADAGVNGAVTYEINRAQSEGDGPFSIDAHTGLLQLERPLDFEQRRVHELVVQARDGGAHPELGSAFVTVHVRDANDNQPSMTVIFLSADGSPQVSEAAPPGQLVARISVSDPDDGDFAHVNVSLEGGEGHFALSTQDSVIYLVCVARRLDREERDAYNLRVTATDSGSPPLRAEAAFVLHVTDVNDNAPAF
notes: human Dachsous1 (Dchs1), EC1-EC4, aa43-472, with R297A; also called Dchs1R297A(EC1-4); Dchs1R297A
- stoichiometry N (Human Fat4(EC1-4) [2]): 1.02 ± 0.138 sites

B4: Human Dchs1(EC1-3) (domain or fragment)
chain: DPQAGSLDLQIDEEQPAGTLIGDISAGLPAGTAAPLMYFISAQEGSGVGTDLAIDEHSGVVRTARVLDREQRDRYRFTAVTPDGATVEVTVRVADINDHAPAFPQARAALQVPEHTAFGTRYPLEPARDADAGRLGTQGYALSGDGAGETFRLETRPGPDGTPVPELVVTGELDRENRSHYMLQLEAYDGGSPPRRAQALLDVTLLDINDHAPAFNQSRYHAVVSESLAPGSPVLQVFASDADAGVNGAVTYEINRRQSEGDGPFSIDAHTGLLQLERPLDFEQRRVHELVVQARDGGAHPELGSAFVTVHVRDANDNQPSM
notes: human Dachsous1 (Dchs1), extracellular cadherin domains EC1-EC3, aa43-362; A 3C protease site stands between the protein and the C-terminal BAP-tag and His6
- stoichiometry N (Human Fat4(EC1-4) [2]): 0.978 ± 0.0137 sites

B5: human Dchs1(EC1–4) (domain or fragment)
chain: DPQAGSLDLQIDEEQPAGTLIGDISAGLPAGTAAPLMYFISAQEGSGVGTDLAIDEHSGVVRTARVLDREQRDRYRFTAVTPDGATVEVTVRVADINDHAPAFPQARAALQVPEHTAFGTRYPLEPARDADAGRLGTQGYALSGDGAGETFRLETRPGPDGTPVPELVVTGELDRENRSHYMLQLEAYDGGSPPRRAQALLDVTLLDINDHAPAFNQSRYHAVVSESLAPGSPVLQVFASDADAGVNGAVTYEINRRQSEGDGPFSIDAHTGLLQLERPLDFEQRRVHELVVQARDGGAHPELGSAFVTVHVRDANDNQPSMTVIFLSADGSPQVSEAAPPGQLVARISVSDPDDGDFAHVNVSLEGGEGHFALSTQDSVIYLVCVARRLDREERDAYNLRVTATDSGSPPLRAEAAFVLHVTDVNDNAPAF
notes: human Dchs1, EC1–EC4, aa43–472; Form used in ITC; also called Dachsous1(EC1–4); wild type Dchs1(EC1–4)
- Kd (human Fat4(EC1–4)): 470 ± 130 nM

B6: human Dchs1(EC1–3) (domain or fragment)
chain: DPQAGSLDLQIDEEQPAGTLIGDISAGLPAGTAAPLMYFISAQEGSGVGTDLAIDEHSGVVRTARVLDREQRDRYRFTAVTPDGATVEVTVRVADINDHAPAFPQARAALQVPEHTAFGTRYPLEPARDADAGRLGTQGYALSGDGAGETFRLETRPGPDGTPVPELVVTGELDRENRSHYMLQLEAYDGGSPPRRAQALLDVTLLDINDHAPAFNQSRYHAVVSESLAPGSPVLQVFASDADAGVNGAVTYEINRRQSEGDGPFSIDAHTGLLQLERPLDFEQRRVHELVVQARDGGAHPELGSAFVTVHVRDANDNQPSM
notes: human Dchs1, EC1–EC3, aa43–362; Form used in ITC; also called wild type Dchs1(EC1–3)
- Kd (human Fat4(EC1–4)): 980 ± 120 nM

B7: Human Dchs1(EC1-3) (domain or fragment)
chain: DPQAGSLDLQIDEEQPAGTLIGDISAGLPAGTAAPLMYFISAQEGSGVGTDLAIDEHSGVVRTARVLDREQRDRYRFTAVTPDGATVEVTVRVADINDHAPAFPQARAALQVPEHTAFGTRYPLEPARDADAGRLGTQGYALSGDGAGETFRLETRPGPDGTPVPELVVTGELDRENRSHYMLQLEAYDGGSPPRRAQALLDVTLLDINDHAPAFNQSRYHAVVSESLAPGSPVLQVFASDADAGVNGAVTYEINRRQSEGDGPFSIDAHTGLLQLERPLDFEQRRVHELVVQARDGGAHPELGSAFVTVHVRDANDNQPSM
notes: Dchs1 (Dachsous1), human, EC1-EC3, aa43-362
- Kd (Human Fat4(EC1-4) [3]): 980 nM and 970 nM
